This note sets out measurements from paper PMC8058080.

For this experiment, the target named is Acaryochloris marina photosystem I (PSI) monomer, 11 subunits (PsaA, PsaB, PsaC, PsaD, PsaE, PsaF, PsaJ, PsaK, PsaL, PsaM, Psa27) (Acaryochloris marina) (UniProt B0C474). Kind of experiment: cryo-EM structure; PSI trimer purified from A. marina; 50 mM MES-NaOH pH 6.5, 5 mM CaCl2, 10 mM MgCl2, 0.002% LMNG; 2.58 Å with C3 symmetrization, 2.97 Å without.

Broadly, the stoichiometry N is the number of molecules, sites or subunits per partner or assembly.

With “Acaryochloris marina photosystem I (PSI) monomer, 11 subunits (PsaA, PsaB, PsaC, PsaD, PsaE, PsaF, PsaJ, PsaK, PsaL, PsaM, Psa27) (from UniProt B0C474 1-753; B0C475 1-736; B0CB42 1-81; B0C8F1 1-139; B0C5D5 1-89; B0C7S7 1-167; B0C7S6 1-51; B0C7S4 1-153; B0C4H4 1-31) (complex)”, the stoichiometry N stood at 3.
